# In the supplement of paper PMC9112550, “Optimization of the antimicrobial peptide Bac7 by deep mutational scanning” (BMC Biology, 2022):
# System: Escherichia coli TOP10
# Assay: shrunken log2 fold change of peptide-encoding DNA abundance (4.5 h post-induction vs induction); higher = less antimicrobial activity (less host growth inhibition)
# Settings: time post-induction: 4.5 h; library: site-saturation at positions 5, 18, 19, 20
# 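Further: peptides expressed intracellularly from a pBAD plasmid library in pooled LB shake-flask culture, induced with 0.3% L-arabinose, DNA abundance read by NGS, three biological replicates, DESeq2 with apeglm shrinkage.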
row,Sequence,shrunken log2 fold change
1,RRIRIRPPRLPRPRPRPNWCPRP,-0.26
2,RRIRGRPPRLPRPRPRPFWNPRP,0.087
3,RRIRCRPPRLPRPRPRPLMIPRP,-0.431
4,RRIRSRPPRLPRPRPRPSQDPRP,-0.296
5,RRIRARPPRLPRPRPRPLSEPRP,0.172
6,RRIRKRPPRLPRPRPRPIWFPRP,-0.0276
7,RRIRLRPPRLPRPRPRPGPHPRP,-0.0887
8,RRIRERPPRLPRPRPRPVTDPRP,-0.069
9,RRIRRRPPRLPRPRPRPEQWPRP,-0.173
10,RRIRIRPPRLPRPRPRPGHWPRP,0.0615
11,RRIRSRPPRLPRPRPRPLSWPRP,0.239
12,RRIRYRPPRLPRPRPRPPECPRP,0.0463
13,RRIRNRPPRLPRPRPRPDRRPRP,-0.115
14,RRIRGRPPRLPRPRPRPERDPRP,0.955
15,RRIRHRPPRLPRPRPRPWRDPRP,-0.154
16,RRIRLRPPRLPRPRPRPTNQPRP,-0.327
17,RRIRYRPPRLPRPRPRPKYLPRP,0.00379
18,RRIRQRPPRLPRPRPRPCTWPRP,-0.464
19,RRIRERPPRLPRPRPRPNCGPRP,-0.26
20,RRIRHRPPRLPRPRPRPFYAPRP,-0.724
21,RRIRNRPPRLPRPRPRPGFTPRP,0.0826
22,RRIRRRPPRLPRPRPRPSRTPRP,0.141
23,RRIRVRPPRLPRPRPRPRFLPRP,-0.247
24,RRIRWRPPRLPRPRPRPSTTPRP,0.221
25,RRIRKRPPRLPRPRPRPGHQPRP,-0.0847

row,Sequence,shrunken log2 fold change
1,RRIRYRPPRLPRPRPRPEYGPRP,-0.249
2,RRIRERPPRLPRPRPRPCANPRP,-0.158
3,RRIRARPPRLPRPRPRPRWYPRP,-0.0331
4,RRIRRRPPRLPRPRPRPDPQPRP,1.23
5,RRIRLRPPRLPRPRPRPERWPRP,0.637
6,RRIRWRPPRLPRPRPRPTAGPRP,0.965
7,RRIRERPPRLPRPRPRPCYEPRP,-0.0528
8,RRIRKRPPRLPRPRPRPMTHPRP,-0.00695
9,RRIRPRPPRLPRPRPRPCFKPRP,-0.341
10,RRIRMRPPRLPRPRPRPHRPPRP,0.066
11,RRIRHRPPRLPRPRPRPLPQPRP,0.348
12,RRIRARPPRLPRPRPRPYDRPRP,-0.01
13,RRIRYRPPRLPRPRPRPIWNPRP,0.0337
14,RRIRERPPRLPRPRPRPIASPRP,0.129
15,RRIRRRPPRLPRPRPRPSMFPRP,-0.0509
16,RRIRDRPPRLPRPRPRPFQCPRP,0.00675
17,RRIRARPPRLPRPRPRPCYDPRP,-0.56
18,RRIRDRPPRLPRPRPRPSTWPRP,-0.0672
19,RRIRSRPPRLPRPRPRPRSPPRP,0.363
20,RRIRDRPPRLPRPRPRPHFIPRP,-0.0922
21,RRIRSRPPRLPRPRPRPNDSPRP,-0.342
22,RRIRERPPRLPRPRPRPNRCPRP,-0.00988
23,RRIRQRPPRLPRPRPRPFAMPRP,-0.132
24,RRIRHRPPRLPRPRPRPGSSPRP,0.0127
25,RRIRIRPPRLPRPRPRPDGEPRP,0.0147

row,Sequence,shrunken log2 fold change
1,RRIRTRPPRLPRPRPRPHEQPRP,0.177
2,RRIRIRPPRLPRPRPRPAMCPRP,-0.182
3,RRIRRRPPRLPRPRPRPDPRPRP,0.12
4,RRIRGRPPRLPRPRPRPVMSPRP,0.401
5,RRIRQRPPRLPRPRPRPADQPRP,0.012
6,RRIRSRPPRLPRPRPRPNAIPRP,0.235
7,RRIRKRPPRLPRPRPRPAGWPRP,0.893
8,RRIRVRPPRLPRPRPRPKIRPRP,0.161
9,RRIRARPPRLPRPRPRPGLEPRP,0.629
10,RRIRVRPPRLPRPRPRPCTDPRP,-0.46
11,RRIRRRPPRLPRPRPRPMKKPRP,-0.0239
12,RRIRCRPPRLPRPRPRPWNVPRP,-0.476
13,RRIRFRPPRLPRPRPRPMDRPRP,0.0616
14,RRIRPRPPRLPRPRPRPPGQPRP,0.141
15,RRIRQRPPRLPRPRPRPYSMPRP,-0.031
16,RRIRIRPPRLPRPRPRPDKPPRP,-0.0335
17,RRIRARPPRLPRPRPRPFRKPRP,0.00339
18,RRIRFRPPRLPRPRPRPTTSPRP,0.0366
19,RRIRGRPPRLPRPRPRPMNEPRP,0.056
20,RRIRHRPPRLPRPRPRPFNTPRP,-1.18
21,RRIRYRPPRLPRPRPRPEGRPRP,0.172
22,RRIRPRPPRLPRPRPRPTPWPRP,0.427
23,RRIRVRPPRLPRPRPRPLKFPRP,0.044
24,RRIRCRPPRLPRPRPRPAAIPRP,0.0247
25,RRIRIRPPRLPRPRPRPLLYPRP,0.47

row,Sequence,shrunken log2 fold change
1,RRIRQRPPRLPRPRPRPEAWPRP,0.316
2,RRIRWRPPRLPRPRPRPAAVPRP,0.806
3,RRIRRRPPRLPRPRPRPFKKPRP,-0.0451
4,RRIRSRPPRLPRPRPRPDVTPRP,-0.0165
5,RRIRRRPPRLPRPRPRPPLPPRP,1.06
6,RRIRPRPPRLPRPRPRPDAWPRP,0.513
7,RRIRGRPPRLPRPRPRPALRPRP,0.991
8,RRIRVRPPRLPRPRPRPVKMPRP,0.0133
9,RRIRHRPPRLPRPRPRPWLVPRP,-0.0872
10,RRIRKRPPRLPRPRPRPFFCPRP,0.232
11,RRIRLRPPRLPRPRPRPFAMPRP,-0.407
12,RRIRLRPPRLPRPRPRPKFTPRP,-0.289
13,RRIRERPPRLPRPRPRPKTEPRP,-0.0578
14,RRIRKRPPRLPRPRPRPSIFPRP,-0.0205
15,RRIRQRPPRLPRPRPRPASNPRP,-0.00674
16,RRIRARPPRLPRPRPRPLDPPRP,0.244
17,RRIRHRPPRLPRPRPRPCDLPRP,-0.502
18,RRIRARPPRLPRPRPRPVNHPRP,-0.298
19,RRIRTRPPRLPRPRPRPSRCPRP,0.061
20,RRIRPRPPRLPRPRPRPGEFPRP,0.318
21,RRIRCRPPRLPRPRPRPQSHPRP,-0.304
22,RRIRRRPPRLPRPRPRPSPDPRP,0.608
23,RRIRNRPPRLPRPRPRPNYTPRP,-0.359
24,RRIRQRPPRLPRPRPRPAICPRP,-0.0709
25,RRIRFRPPRLPRPRPRPDPQPRP,0.0361

row,Sequence,shrunken log2 fold change
1,RRIRERPPRLPRPRPRPMSNPRP,-0.16
2,RRIRHRPPRLPRPRPRPISQPRP,-0.0145
3,RRIRMRPPRLPRPRPRPQLYPRP,0.284
4,RRIRQRPPRLPRPRPRPSCHPRP,-0.253
5,RRIRPRPPRLPRPRPRPPAAPRP,0.54
6,RRIRERPPRLPRPRPRPMAEPRP,0.0131
7,RRIRLRPPRLPRPRPRPQVQPRP,-0.0263
8,RRIRFRPPRLPRPRPRPFAYPRP,0.0263
9,RRIRSRPPRLPRPRPRPWFCPRP,-0.439
10,RRIRKRPPRLPRPRPRPMNQPRP,-0.153
11,RRIRWRPPRLPRPRPRPPWIPRP,1.44
12,RRIRERPPRLPRPRPRPRLSPRP,0.134
13,RRIRARPPRLPRPRPRPVTQPRP,0.0996
14,RRIRMRPPRLPRPRPRPTIAPRP,0.26
15,RRIRDRPPRLPRPRPRPSCVPRP,0.282
16,RRIRGRPPRLPRPRPRPFRNPRP,0.0285
17,RRIRMRPPRLPRPRPRPRMYPRP,-0.0804
18,RRIRSRPPRLPRPRPRPWHWPRP,0.211
19,RRIRGRPPRLPRPRPRPNMGPRP,0.269
20,RRIRRRPPRLPRPRPRPPHIPRP,0.655
21,RRIRYRPPRLPRPRPRPKAQPRP,0.35
22,RRIRSRPPRLPRPRPRPWFMPRP,-0.86
23,RRIRMRPPRLPRPRPRPLIWPRP,0.246
24,RRIRFRPPRLPRPRPRPFTNPRP,-0.125
25,RRIRGRPPRLPRPRPRPLHNPRP,0.249
